This is an account of results in patent publication US20250255902A1 (published 2025).

Targets include TEA1-E8; Gly2-1-F2; Gly3-2-C1; Gly1-2-D4.
Experiment in all cases: BLI

Some results are limits rather than exact numbers.

B1: MSLN (other)
chain: EVEKTACPSGKKAREIDESLIFYKKWELEACVDAALLATQMDRVNAIPFTYEQLDVLKHKLDELYPQGYPESVIQHLGYLFLKMSPEDIRKWNVTSLETLKALLEVNKGHEMSPQVATLIDRFVKGRGQLDKDTLDTLTAFYPGYLCSLSPEELSSVPPSSIWAVRPQDLDTCDPRQLDVLYPKARLAFQNMNGSEYFVKIQSFLGGAPTEDLKALSQQNVSMDLATFMKLRTDAVLPLTVAEVQKLLGPHVEGLKAEERHRPVRDWILRQRQDDLDTLGLGLQG
With B1, the dissociation constant (Kd) (in general, the constant that tells how readily two partners part at equilibrium) is 0.166 nM in the test with TEA1-E8, below 0.001 nM in the test with Gly2-1-F2, 4.88 nM with Gly3-2-C1 and 4.46 nM in the test with Gly1-2-D4.
